# Data published in the RNAGym collection of RNA variant scans (doi:10.1073/pnas.2313332121).
# Fewer inactive variants are shown than the library holds.
# B1: TPR 5TU (parent)
# chain: GGAUCUUCUCGAUCUAACAAAAAAGACAAAUCUGCCACAAAGCUUGAGAGCAUCUUCGGAUGCAGAGGCGGCAGCCUUCGGUGGCGCGAUAGCGCCAACGUUCUCAACUAUGACACGCAAAACGCGUGCUCCGUUGAAUGGAGUUUAUCAUG
# Variants of: B1
# Test: polymerase ribozyme fitness, log enrichment relative to wild type (log ratio); higher = more active; in vitro selection for triplet polymerase activity
# How it was run: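 Each subunit of a heterodimeric triplet polymerase ribozyme was mutagenized into a library by PCR, transcribed, and subjected to one round of in vitro selection, run in triplicate. Libraries were annealed with a biotinylated primer, the partner subunit and triplets, incubated frozen at −7 °C, and extended constructs were gel-excised, captured on streptavidin beads and recovered by RT-PCR. Input and output libraries were sequenced on Illumina, keeping genotypes with ≥10 input reads and ≥1 read per output. Fitness is log base 2 of genotype enrichment divided by wild-type enrichment, from inverse-variance-weighted replicate averages.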
row,Variant,polymerase ribozyme fitness (log ratio)
1,GGAUCUUCUCGAUCUAACAAAAAAGACAAAUCUGCCACAAAGCUUGAGAGCAUCUUCGGACGCAGAGGCGGCAGCCUUCGGUGGCGCGAUAGCGCAAACGUUCUCAACUAUGACACGCAAAACGCGUGCUCCGUUGAAUGGAGUUUAUCAUG [U61C C96A],-3.31
2,GGAUCUUCUCGAUCUAACAAAAAAGACAAAUCUGCCACAAAGCUUGAGAGCAUCUUCGGAAGCAGAGGCGGCAGCCUUCGGUCGCGCGAUAGCGCCAACGUUCUCAACUAUGACACGCAAAACGCGUGCUCCGUUGAAUGGAGUUUAUCAUG [U61A G83C],-3.05
3,GGAUCUUCUCGAUCUAACAAAAAAGACAAAUCUGCCACAAAGCUUGAGAGCAUCUUCGGACGCAGAGGCGGCAGCCUUCGGCGGCGCGAUAGCGCCAACGUUCUCAACUAUGACAUGCAAAACGCGUGCUCCGCUGAAUGGAGUUUAUCAUG [U61C U82C C116U U134C],-2.24
4,GGAUCUUCUCGAUCUAACAAAAAAGACAAAUCUGCCACAAAGCUUGAGAGCAUCUUCGGACGCAGAGGCGGCUGCCUUCGGUGGCGCGAUUGCGCCAACGUUCUCAACUAUGACACGCAAAACGCGUGCUCCGUUGAAUGGAGUUUAUCAUG [U61C A73U A91U],≤ -4.2
5,GGAUCUUCUCGAUCUAACAAAAAAGACAAAUCUGCCACAAAGCUUGAGAGCAUCUUCGGACGCAGAGGCGGCAGCCUUCGGUGGAGCGAUAGCGCCAACGUUCUCAACUAUGACACGCAAGACGCGUGCUCCGUAGAAUGGAGUUUAUCAUG [U61C C85A A121G U135A],≤ -4.2
6,GGAUCUUCUCGAUCUAACAAAAAAGACAAAUCUGCCACAAAGCUUGAGAGCAUCUUCGGAAGCAGAGGCGGCAGCCUUCGGUGGCGCUAUAGCGCCAACGUUCUCAACUAUGACACGCAAAACGCGUGCUCCGUUGAAUGGAGUUUAUCAUG [U61A G88U],≤ -4.2
7,GGAUCUUCUCGAUCUAACAAAAAAGACAAAUCUGCCACAAAGCUUGAGAGCAUCUUCGGACGCAGAGGCGGCAGCCUUCCGUGGUGCGAUAGCGCCAAUGUUCUCAACUAUGACACGCAAAACGCGUGCUCCGUUGAAUGGAGUUAAUCAUG [U61C G80C C85U C99U U146A],≤ -4.2
8,GGAUCUUCUCGAUCUAACAAAAAAGACAAAUCUGCCACAAAGCUUGAGAGCAUCUUCGGACGCAGAGGUUGCAGCCUUCGGUGGCUCGAUAGCGCCAACGUUCUCACCUAUGACACGCAAAACGCGUGCUCCGUUGAAUGGAGUUUAUCAUG [U61C C69U G70U G86U A107C],≤ -4.2
9,GGAUCUUCUCGAUCUAACAAAAAAGACAAAUCUGCCACAAAGCUUGAGAGCAUCUUCGGAAGCAGAGGCGGCAGCCUUCGGUGUCGCGAUAGCGCCAACGUUCUCAACUAUGAUACGCAAAACGCGUGCUCCGUUGAAUGGAGUUUAUCAUG [U61A G84U C114U],-3.85
10,GGAUCUUCUCGAUCUAACAAAAAAGACAAAUCUGCCACAAAGCUUGAGAGCAUCUUCGGAAGCAGAGGCGGCAGCCUUCGGUGGCUCGAUAGCGCCAACGUUCUCAACUAUGACACGCAAAACGCGUGCUCCGUUGAAUGGAGUUUAUCAUG [U61A G86U],-2.99
11,GGAUCUUCUCGAUCUAACAAAAAAGACAAAUCUGCCACAAAGCUUGAGAGCAUCUUCGGACGCAGAGGCGGCAGCCUUCGGUGGCGCGAUAGCGCCAACGUUCUCAACUAUGACACGCAAAACGCAUGCUCCGUUGAAUGGAGUUUAUCAUG [U61C G126A],-0.237
12,GGAUCUUCUCGAUCUAACAAAAAAGACAAAUCUGCCACAAAGCUUGAGAGCAUCUUCGGAAGCAGAGGCGGCAGCCUUCGGUGGCGCGAUAGCGCCAACGUUCUCAACUAUGACACGCAAAACGCGUGCUCCGUUGAAUAGAGUUUAUCAUG [U61A G140A],≤ -4.2
13,GGAUCUUCUCGAUCUAACAAAAAAGACAAAUCUGCCACAAAGCUUGAGAGCAUCUUCGGAAGCAGAGGCGGCAGCCUUCGGUGGCGCGAUAGCACCAACGUUCUCAACUAUGACACGCAAAACGCGUGCUCCGUUGAAUGGAGUUUAUCAUG [U61A G94A],-2.08
14,GGAUCUUCUCGAUCUAACAAAAAAGACAAAUCUGCCACAAAGCUUGAGAGCAUCUUCGGACGCAGAGGCGGCAGCAUUCGGUGGCGCGAUAGCGCCAACGUUCUCAACUAUGACACGCAAAACGCGUGCUCCGUUGAAUGGAGUUUAUCAUG [U61C C76A],-2.59
15,GGAUCUUCUCGAUCUAACAAAAAAGACAAAUCUGCCACAAAGCUUGAGAGCAUCUUCGGAAGCAGAGGCGGCAGCCUUCGGUGGCGCGAUAGCGCCAACGUUCUCAACUAUGACACGCAAAACGCGUGCUCCGUUGAAUGGACUUUAUCAUG [U61A G143C],-2.62
16,GGAUCUUCUCGAUCUAACAAAAAAGACAAAUCUGCCACAAAGCUUGAGAGCAUCUUCGGAAGCAGAGGCGGCAGCCUUCGGUGACGCGAUAGCGCCAACGUUCUCAACUAUGACACGCAAAACGCGUGCUCCGUUGAAUGGAGUUUAUCAUG [U61A G84A],-1.38
17,GGAUCUUCUCGAUCUAACAAAAAAGACAAAUCUGCCACAAAGCUUGAGAGCAUCUUCGGACGCAGAGGCGGCAGCCUUCGCUGGCGCGAUAGCGGCAACGUUCUCAACUAUGACACGCAAAAUGCGUGCUCCGUUGAAUGGGGUUUAUCAUG [U61C G81C C95G C123U A142G],≤ -4.2
18,GGAUCUUCUCGAUCUAACAAAAAAGACAAAUCUGCCACAAAGCUUGAGAGCAUCUUCGGAAGCAGAGGCGGCAGCCUUCGGUGGCGCGAUAGCGCCAACGUUCUCAACUAUGACACGCAAAACGCGUGCUCCGUUGAAUGGAGCUUAUCAUG [U61A U144C],-2.19
19,GGAUCUUCUCGAUCUAACAAAAAAGACAAAUCUGCCACAAAGCUUGAGAGCAUCUUCGGAAGCAGAGGCGGCAGCCUUCGGUGGCACGAUAGCGCCUAGGUUCUCAACUAUGUCACGCAAAACGCGUGCUCCGUUGAAUGGAGUUUAUCAUU [U61A G86A A97U C99G A113U G152U],≤ -4.2

row,Variant,polymerase ribozyme fitness (log ratio)
1,GGAUCUUCUCGAUCUAACAAAAAAGACAAAUCUGCCACAAAGCUUGAGAGCAUCUUCGGAAGCAGAGGCGGCAGCCUUCGGUGGCGCGAUAUCGCCAACGUUCUCAACUAUGACACGCAAAACGCGUGCUCCGUUGAAUGGAGUUUAUCAUG [U61A G92U],-3.41
2,GGAUCUUCUCGAUCUAACAAAAAAGACAAAUCUGCCACAAAGCUUGAGAGCAUCUUCGGAAGCAGAGGCGGCAGCCUUCGGUGGCGCGAUAGCGCCAACGUUCUCAACUAUGACACGCAAAACGCCUGCUCCGUUGAAUGGAGUUUAUCAUG [U61A G126C],-0.89
3,GGAUCUUCUCGAUCUAACAAAAAAGACAAAUCUGCCACAAAGCUUGAGAGCAUCUUCGGACGCAGAGGCGGCAGCCUUCGGUGGCGCGAUAGCGCCAUCGUUGUCAACUAUGACGCGCAAAACGCGUGCUUCGUUGAAUGGAGUUUAUCAUG [U61C A98U C103G A115G C131U],≤ -4.2
4,GGAUCUUCUCGAUCUAACAAAAAAGACAAAUCUGCCACAAAGCUUGAGAGCAUCUUCGGAAGCAGAGGCGGCAGCCAUCGGUGGCGCGAUAGCGUCCACGUUCUCAACUAUGACACGCAAAACGCGUGCUCCGUUGAAAGGAGUUUAUCGUG [U61A U77A C95U A97C U139A A150G],≤ -4.2
5,GGAUCUUCUCGAUCUAACAAAAAAGACAAAUCUGCCACAAAGCUUGAGAGCAUCUUCGGACGCAGAGGCGGCAGCCUUCGGUGGCGCGAUAGCGCAAACGUUCUCAACUAUGACACGCAAGACGCGUGCUCCGUUGAAUGGAGUUUAUCAUG [U61C C96A A121G],-2.74
6,GGAUCUUCUCGAUCUAACAAAAAAGACAAAUCUGCCACAAAGCUUGAGAGCAUCUUCGGAAGCAGAGGCGGCAGCCUUCGGUGGCGCGACAGCGCAAACGUUCUCAACUAUGACUCGCAAAACGCGUGCUCCGUUGAAUGGAGUUUAUCAUU [U61A U90C C96A A115U G152U],≤ -4.2
7,GGAUCUUCUCGAUCUAACAAAAAAGACAAAUCUGCCACAAAGCUUGAGAGCAUCUUCGGAAGCAGAGGCGGCAGCCUUCGGUGGCACGAUAGCGCCAACGUUCUCAACUAUGACACGCAAAGCGCGUGCUCCGUUGAAUGGAGUUUAUCAUG [U61A G86A A122G],-2.67
8,GGAUCUUCUCGAUCUAACAAAAAAGACAAAUCUGCCACAAAGCUUGAGAGCAUCUUCGGACGCAGAGGCGGCAGCCUUCGGUGGCGCGAUAACGCCAACGUUCUCAACUAUGACACGCACAAAGCGUGCUCCGUUGAAUGGAGCUUAUCAUG [U61C G92A A120C C123A U144C],≤ -4.2
9,GGAUCUUCUCGAUCUAACAAAAAAGACAAAUCUGCCACAAAGCUUGAGAGCAUCUUCGGAAGCAGAGGCGGCAGCCUACGGUGGCGCGAUAGCGUCAACGUUCUCAACUAUGACACGCAAAAAGCGUGCUCCGUUGAAUGGAGUUAAUCAUG [U61A U78A C95U C123A U146A],≤ -4.2
10,GGAUCUUCUCGAUCUAACAAAAAAGACAAAUCUGCCACAAAGCUUGAGAGCAUCUUCGGAGGCCGAGGCGGCAGGCUUCGGUGGCGCGAUAGUGCCAACGUUCUCAACUAUGACACGCAAAACGCGUGCUCCGUUGAAUGGAGUUUAUCAUG [U61G A64C C75G C93U],≤ -4.2
11,GGAUCUUCUCGAUCUAACAAAAAAGACAAAUCUGCCACAAAGCUUGAGAGCAUCUUCGGAAGCAGAGGCGGCAGCCUUCGGUGACGCGAUAUCGCCAACUUUCUCAACUAUGACACGCAAAACGCGUGCUCCGUUGAAUGGAGUUUAUCAUG [U61A G84A G92U G100U],≤ -4.2
12,GGAUCUUCUCGAUCUAACAAAAAAGACAAAUCUGCCACAAAGCUUGAGAGCAUCUUCGGAAGCAGAGGCGGCAGCCUUCGGUGGCGCGAUAGCGCCAACGGUCUCAACUAUGACACGCAAAACGCGUGCUCCGUUGAAUGGAGUUUAUCAUG [U61A U101G],-1.11
13,GGAUCUUCUCGAUCUAACAAAAAAGACAAAUCUGCCACAAAGCUUGAGAGCAUCUUCGGACGCAGAGGCGGCAGCCUUCGGUGGCGCGAUAGCGCCAACGUUCGCAACUAUGACACGCAAAACGCCUGCUCCGUUGAAUGGAGUUUAUCAUG [U61C U104G G126C],-2.04
14,GGAUCUUCUCGAUCUAACAAAAAAGACAAAUCUGCCACAAAGCUUGAGAGCAUCUUCGGAAGCAGAGGCGGCAGCCUUCGGUGGCGCGAUAGCUCCAACGUUCUCGACUAUGACACGCAAAACGCGUGCUCCGUUGAAUGGAGUUUAUCAUG [U61A G94U A106G],-2.71
15,GGAUCUUCUCGAUCUAACAAAAAAGACAAAUCUGCCACAAAGCUUGAGAGCAUCUUCGGACGCAGAGGCGGCAGCCUUCGGUGGCGCGAUAGCACCAACGUUCUCAACUAUGACACGCAAAACGCGUGCUCCGUUGAAUGAAGUUUAUAAUG [U61C G94A G141A C149A],≤ -4.2
16,GGAUCUUCUCGAUCUAACAAAAAAGACAAAUCUGCCACAAAGCUUGAGAGCAUCUUCGGAAGCAGAGGCGGCAGCCUUCGGUGGCGCGAGAGCGCCAACGUUCUCAACUAUGACACGCAAAACGCGUGCUCCGUUGAACGGAGUUUAUCAUG [U61A U90G U139C],≤ -4.2
17,GGAUCUUCUCGAUCUAACAAAAAAGACAAAUCUGCCACAAAGCUUGAGAGCAUCUUCGGAAGCAGAGGCGGCAGCCUUCGGAGGCGCGAUAGCGCCAACGUUCUCAACUAUGACACGCAAAACGCGUGCUCCGUUGAAUGGAGUUUAUCAUG [U61A U82A],-1.03
18,GGAUCUUCUCGAUCUAACAAAAAAGACAAAUCUGCCACAAAGCUUGAGAGCAUCUUCGGACGCGGAGGCGGCAGCCUUCGGUGGCGCGAUAGCGCCAACGUUCUCAACUAUGACACGCAAAACGCGUGCUCCGUUGAAUGGAGUUUAUCAUG [U61C A64G],≤ -4.2
19,GGAUCUUCUCGAUCUAACAAAAAAGACAAAUCUGCCACAAAGCUUGAGAGCAUCUUCGGAAGCAGAGGCGGCAGCCUUCGGUGGCGCGAUAGCGCCAACGUUCUCAACUAUGACACGCAAAACCCGUGCUCCGUUGAAUGGAGUUUAUCAUG [U61A G124C],-2
